± gives the uncertainty stated by the source.
Experiment: self-splicing fitness, log relative to wild type (ln ratio); higher = more splicing; Tetrahymena group I intron in knt gene, E. coli kanamycin selection, DiMSum; sequences stand for … in CUCUCU…GGAGGGAAAAGUUAUCAGGCAUGCACCUGGUAGCUAGUCUUUAAACCAAUAGAUUGCAUCGGUUUAAAAGGCAAGACCGUCAAAUUGCGGGAAAGGGGUCAACAGCCGUUCAGUACCAAGUCUCAGGGGAAACUUUGAGAUGGCCUUGCAAAGGGUAUGGUAAUAAGCUGACGGACAUGGUCCUAACCACGCAGCCAAGUCCUAAGUCAACAGAUCUUCUGUUGAUAUGGAUGCAGUUCACAGACUAAAUGUCGGUCGGGGAAGAUGUAUUCUUCUCAUAAGAUAUAGUCGGACCUCUCCUUAAUGGGAGCUAGCGGAUGAAGUGAUGCAACACUGGAGCCGCUGGGAACUAAUUUGUAUGCGAAAGUAUAUUGAUUAGUUUUGGAGUACUCGUGGUCG
Procedure, shortened: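 Six replicate transformations of E. coli BL21(DE3) with a pET-22b(+) library were grown overnight at 37°C or 30°C. The library randomised all eight P1ex-region intron nucleotides, the intron lying in the knt kanamycin-resistance gene, and plates were LB agar with or without 25 μg/mL kanamycin plus 100 μg/mL carbenicillin, 50 μM IPTG and 0.2% rhamnose. Pooled colonies were amplicon-sequenced on an Illumina HiSeq 2500, and fitness is the DiMSum error-weighted combination of wild-type-normalised replicate fold changes, kanamycin versus none.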

| Sequence | self-splicing fitness (ln) (30 °C) | self-splicing fitness (ln) (37 °C) |
| --- | --- | --- |
| UGCCAGCAAUAUUACGGUUU | -0.471 ± 0.075 | -0.237 ± 0.096 |
| UUGCAGCAAUAUUACGUACU | -1.36 ± 0.12 | -0.848 ± 0.12 |
| GGGUAGCAAUAUUACGGUAA | -1.28 ± 0.12 | -0.587 ± 0.1 |
| AAUCAGCAAUAUUACGAAGU | -0.414 ± 0.059 | 0.136 ± 0.084 |
| GGUUAGCAAUAUUACGUCCU | -1.2 ± 0.12 | -0.367 ± 0.12 |
| UGGAAGCAAUAUUACGGGUG | -1.07 ± 0.063 | -0.839 ± 0.083 |
| GUUGAGCAAUAUUACGAGCG | – | -1.37 ± 0.25 |
| UUAUAGCAAUAUUACGGCUU | -1.99 ± 0.17 | -0.583 ± 0.18 |
| GCGUAGCAAUAUUACGAGAU | -2.22 ± 0.12 | -2.25 ± 0.17 |
| ACUUAGCAAUAUUACGUUAU | -3.66 ± 0.22 | -1.31 ± 0.16 |
| UGUAAGCAAUAUUACGAUUA | -0.52 ± 0.076 | 0.447 ± 0.089 |
| CCCUAGCAAUAUUACGGGUG | -2.51 ± 0.11 | -0.894 ± 0.089 |
| UCCGAGCAAUAUUACGCACU | -2.93 ± 0.25 | -1.99 ± 0.22 |
| UGUCAGCAAUAUUACGGGAC | -4.31 ± 0.23 | -2.93 ± 0.34 |
| UUCGAGCAAUAUUACGACAG | -2.81 ± 0.19 | -1.5 ± 0.13 |
| GGCCAGCAAUAUUACGUUAC | -2.01 ± 0.12 | -0.532 ± 0.15 |
| GCUAAGCAAUAUUACGUUCG | -0.791 ± 0.097 | -0.25 ± 0.17 |
| CUAGAGCAAUAUUACGUUCG | -1.1 ± 0.047 | -0.578 ± 0.076 |
| GAAGAGCAAUAUUACGUAGA | -4.54 ± 0.42 | -2.21 ± 0.25 |
| GCUGAGCAAUAUUACGGGUG | -1.72 ± 0.087 | -1.29 ± 0.11 |
| CCUUAGCAAUAUUACGAAUC | -2.65 ± 0.36 | -1.38 ± 0.34 |
| GGAGAGCAAUAUUACGUUCG | -1.27 ± 0.19 | -0.35 ± 0.23 |
| CGUAAGCAAUAUUACGGUAC | -3.29 ± 0.28 | -1.78 ± 0.19 |
| GGCAAGCAAUAUUACGCGUG | -1.95 ± 0.088 | -2.11 ± 0.095 |
| AUUCAGCAAUAUUACGCGAC | -2.38 ± 0.23 | -0.937 ± 0.18 |

| Sequence | self-splicing fitness (ln) (30 °C) | self-splicing fitness (ln) (37 °C) |
| --- | --- | --- |
| CUGCAGCAAUAUUACGGCCA | -1.25 ± 0.34 | -0.578 ± 0.24 |
| UGAGAGCAAUAUUACGAAUU | -3.84 ± 0.16 | -2.79 ± 0.17 |
| AUGAAGCAAUAUUACGUUUU | -2.36 ± 0.12 | -1.7 ± 0.15 |
| AGUCAGCAAUAUUACGGGGC | – | -2.31 ± 0.45 |
| GUGGAGCAAUAUUACGGUGC | -2.76 ± 0.24 | -1.93 ± 0.25 |
| UAUAAGCAAUAUUACGGCCA | -0.385 ± 0.15 | 0.169 ± 0.22 |
| AAUGAGCAAUAUUACGAAGC | -3.08 ± 0.35 | -1.89 ± 0.43 |
| AGACAGCAAUAUUACGACUA | -0.888 ± 0.092 | -0.383 ± 0.088 |
| UUAUAGCAAUAUUACGUGCC | -2.08 ± 0.27 | -0.756 ± 0.35 |
| ACGAAGCAAUAUUACGUGCA | -0.772 ± 0.066 | 0.325 ± 0.084 |
| UAGCAGCAAUAUUACGGGCA | -0.608 ± 0.11 | -0.41 ± 0.1 |
| CCGCAGCAAUAUUACGGAGG | -3.01 ± 0.16 | -1.81 ± 0.18 |
| GCAUAGCAAUAUUACGGCCU | -1.44 ± 0.11 | -0.683 ± 0.11 |
| CCAAAGCAAUAUUACGUCAU | -3.8 ± 0.2 | -2.87 ± 0.22 |
| AAUCAGCAAUAUUACGCGGA | -0.694 ± 0.076 | -0.555 ± 0.079 |
| CUUCAGCAAUAUUACGACAC | – | -1.11 ± 0.24 |
| CACUAGCAAUAUUACGACGC | -2.52 ± 0.12 | -1.02 ± 0.13 |
| CACUAGCAAUAUUACGGGCC | -4.05 ± 0.25 | -2.56 ± 0.22 |
| GAUAAGCAAUAUUACGACUC | 0.0338 ± 0.1 | 0.785 ± 0.13 |
| CUAUAGCAAUAUUACGCGGU | -3.7 ± 0.24 | -2.29 ± 0.22 |
| CCCUAGCAAUAUUACGACGA | -3.12 ± 0.24 | -2.61 ± 0.27 |
| GACCAGCAAUAUUACGGUGC | -2.31 ± 0.067 | -2.09 ± 0.09 |
| ACCUAGCAAUAUUACGACAU | -0.784 ± 0.011 | -0.119 ± 0.032 |
| AGCAAGCAAUAUUACGGUCU | -0.739 ± 0.069 | 0.0318 ± 0.085 |
| GGCUAGCAAUAUUACGAUCU | -0.432 ± 0.1 | 0.129 ± 0.12 |

| Sequence | self-splicing fitness (ln) (30 °C) | self-splicing fitness (ln) (37 °C) |
| --- | --- | --- |
| AUGAAGCAAUAUUACGAGGC | -4.11 ± 0.27 | -2.77 ± 0.23 |
| UUACAGCAAUAUUACGUUGA | -1.57 ± 0.1 | -0.574 ± 0.1 |
| GUAGAGCAAUAUUACGUUAC | -2.63 ± 0.18 | -0.785 ± 0.14 |
| CCGCAGCAAUAUUACGGUCC | -3.73 ± 0.23 | -1.99 ± 0.23 |
| AGGAAGCAAUAUUACGCUAC | -3.48 ± 0.41 | -2.99 ± 0.47 |
| GUCCAGCAAUAUUACGAAGC | -0.345 ± 0.072 | -0.167 ± 0.085 |
| AUAAAGCAAUAUUACGCCGA | -1.06 ± 0.077 | 0.123 ± 0.11 |
| UACUAGCAAUAUUACGAUAG | -1.44 ± 0.12 | -0.923 ± 0.14 |
| UCUGAGCAAUAUUACGCCUU | -3.06 ± 0.12 | -1.54 ± 0.14 |
| CCCAAGCAAUAUUACGUAGC | -2.5 ± 0.42 | -2.74 ± 0.39 |
| AGACAGCAAUAUUACGCUGG | -3.98 ± 0.31 | -3.5 ± 0.3 |
| UCGGAGCAAUAUUACGCAUG | -3.6 ± 0.22 | -1.38 ± 0.17 |
| GAUAAGCAAUAUUACGAGCU | -0.688 ± 0.11 | -1.13 ± 0.12 |
| AUCAAGCAAUAUUACGAUUC | -2.14 ± 0.12 | -1.25 ± 0.16 |
| UACUAGCAAUAUUACGGCAA | -0.353 ± 0.12 | 0.301 ± 0.12 |
| GUAUAGCAAUAUUACGCAUA | -2.3 ± 0.28 | -0.525 ± 0.27 |
| CGGUAGCAAUAUUACGUCCC | -0.348 ± 0.48 | 0.985 ± 0.48 |
| AUCAAGCAAUAUUACGGGUA | -2.04 ± 0.11 | -1.16 ± 0.091 |
| AUGUAGCAAUAUUACGUGAU | -1.52 ± 0.082 | -0.75 ± 0.11 |
| CAGUAGCAAUAUUACGAAUC | -3.49 ± 0.33 | – |
| CUAGAGCAAUAUUACGCAGC | -3.55 ± 0.38 | -3.32 ± 0.46 |
| GUUCAGCAAUAUUACGUGUG | -0.881 ± 0.066 | -0.806 ± 0.084 |
| GGGUAGCAAUAUUACGAACA | – | -0.706 ± 0.39 |
| CGGGAGCAAUAUUACGUGGC | -2.62 ± 0.21 | -2.43 ± 0.36 |
| GCUGAGCAAUAUUACGUGCA | -1.81 ± 0.19 | -0.958 ± 0.19 |

| Sequence | self-splicing fitness (ln) (30 °C) | self-splicing fitness (ln) (37 °C) |
| --- | --- | --- |
| CUCGAGCAAUAUUACGCCGC | – | -2.12 ± 0.4 |
| AGCGAGCAAUAUUACGGAUU | – | -1.96 ± 0.35 |
| CAGGAGCAAUAUUACGUGAC | -2.45 ± 0.19 | – |
| CAUCAGCAAUAUUACGAUAC | -2.95 ± 0.16 | -1.75 ± 0.16 |
| UACUAGCAAUAUUACGACCA | 0.122 ± 0.088 | -0.816 ± 0.1 |
| UGACAGCAAUAUUACGAAAC | -3.96 ± 0.24 | -1.96 ± 0.26 |
| GCACAGCAAUAUUACGUAAC | -1.83 ± 0.092 | -0.651 ± 0.11 |
| GGGAAGCAAUAUUACGUCGU | -0.671 ± 0.16 | -0.462 ± 0.16 |
| UCGUAGCAAUAUUACGCAAU | -3.7 ± 0.47 | -1.99 ± 0.31 |
| UGUGAGCAAUAUUACGUUAG | -2.17 ± 0.25 | -2.84 ± 0.34 |
| GUGUAGCAAUAUUACGUUAC | – | -2.56 ± 0.35 |
| UGAGAGCAAUAUUACGAGCU | – | -2.53 ± 0.49 |
| GCGUAGCAAUAUUACGGUGG | -4.1 ± 0.31 | -3.39 ± 0.39 |
| CAUGAGCAAUAUUACGGUCU | -3.11 ± 0.28 | -1.2 ± 0.18 |
| UGCUAGCAAUAUUACGUACC | – | 0.784 ± 0.4 |
| CCUUAGCAAUAUUACGGACA | -2.53 ± 0.32 | – |
| CUCCAGCAAUAUUACGUUCG | -3.41 ± 0.13 | -2.39 ± 0.17 |
| CGUGAGCAAUAUUACGCAGG | -1.54 ± 0.11 | -2.14 ± 0.15 |
| CACCAGCAAUAUUACGAAUC | -4.57 ± 0.31 | -0.445 ± 0.18 |
| CCGGAGCAAUAUUACGGGCA | -3.1 ± 0.48 | -2.4 ± 0.41 |
| CCUGAGCAAUAUUACGUCCA | -1.86 ± 0.28 | – |
| UCUGAGCAAUAUUACGAUGC | – | -0.729 ± 0.36 |
| AAAGAGCAAUAUUACGUUGA | -2.75 ± 0.21 | -2.28 ± 0.26 |
| AGAGAGCAAUAUUACGGCGU | -2.48 ± 0.19 | -2.7 ± 0.25 |

— the supplement of paper PMC7877785
